# Experimental data from patent publication US20090110632A1 (published 2009).
# Where a chain is given by its changes, count along the chain named. In names and notes the source's numbering stands.
# B1: N56A HMFG1 (antibody, human IgG1, kappa, V domains shown)
# VH: QVQLVQSGAEVKKPGASVKVSCKASGYTFSAYWIEWVRQAPGKGLEWVGEILPGSANSRYNEKFKGRVTVTRDTSTNTAYMELSSLRSEDTAVYYCARSYDFAWFAYWGQGTLVTVSS
# VL: DIQMTQSPSSLSASVGDRVTITCKSSQSLLYSSNQKIYLAWYQQKPGKAPKLLIYWASTRESGVPSRFSGSGSGTDFTFTISSLQPEDIATYYCQQYYRYPRTFGQGTKVEIKR
# B2: N56G HMFG1 (antibody, human IgG1, kappa, V domains shown)
# VH: B1 VH with A56G
# VL: B1 VL
# notes: also called N56G mutant
# B3: N56C HMFG1 (antibody, human IgG1, kappa, V domains shown)
# VH: B1 VH with A56C
# VL: B1 VL
# Molecular target: T1, MUC1-GST fusion protein containing seven variable number tandem repeat (VNTR) region (UniProt P15941 166-305)
# T1 construct: domain: seven variable number tandem, repeat (VNTR) region; Produced by the applicant; coated on the ELISA plate at 1 ug/ml; also called MUC1 antigen; antigen; not shown: GST fusion partner
# T1 sequence (P15941 126-265): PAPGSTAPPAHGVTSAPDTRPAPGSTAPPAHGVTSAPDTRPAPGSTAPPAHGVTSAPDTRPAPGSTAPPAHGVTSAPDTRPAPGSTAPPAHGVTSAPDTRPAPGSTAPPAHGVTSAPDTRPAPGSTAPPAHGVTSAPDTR
# Assay: ELISA, plate-coated MUC1-GST; EC50 against HMFG1 standard of the same assay
# Experimental: 96-well plates (Nunc Maxisorp) were coated with 100 μl of MUC1 at 1 μg/ml in carbonate-bicarbonate buffer (Sigma C3041) overnight at 4° C. MUC1 antigen used here was produced by the applicant and is a MUC1-GST fusion protein containing seven variable number tandem, repeat (VNTR) region; VNTR is the antigen recognised by MUC1.
# Plates were then washed with a wash solution of PBS (phosphate buffered saline), +0.05% Tween 20, and serial dilutions of HMFG1 samples (wildtype protein or mutant) in incubation buffer (200 ml of PBS +0.2 g BSA (bovine serum albumin)) applied to the wells and incubated at 37° C. for 1 hour.
# Plates were again washed, and treated with detection antibody (1.0 μl HRP (horse radish peroxidase) anti-human IgG (BD Pharmingen, P# 555788, or Jackson P#209-035-056) +1 ml incubation buffer) at 37° C. for 30 min, washed with wash buffer, and developed with TMB (tetramethylbenzidine) reagent (100 μl TMB (Sigma, T8665) warmed to room temperature and 100 μl sulphuric acid was used to stop the reaction after approximately 6 minutes). The optical density of the plates was read at 450 nm on a Spectromax plate reader immediately after development.
row,Binder,fold increased affinity compared to HMFG1 standard (from EC50) [fold]
1,B1,~5
2,B2,~10
3,B3,~20
